According to article PMC4763223:
Each block holds one substance with its values, some of them ahead of it.

What was measured:
Test in all cases: GEMMA (gas-phase electrophoretic mobility macromolecule analysis); DNA-free protein; equilibrated into 100 mM ammonium acetate pH 7.8, diluted to 20 mM ammonium acetate and 0.005% Tween-20; low flow-rate (pressure 2 Psi); non-tagged Kat1 at 0.085 mg/ml
[1] = target: Glutathione S-transferase (GST) alone
[2] = target: Glutathione S-transferase (GST)-tagged Kat1+G (Kluyveromyces lactis hAT-transposase 1) (Kluyveromyces lactis)
[3] = target: non-tagged Kat1 (GST-tag cleaved from GST-Kat1 with thrombin) (Kluyveromyces lactis)

Chain of Glutathione S-transferase (GST) alone (P08515 2-218): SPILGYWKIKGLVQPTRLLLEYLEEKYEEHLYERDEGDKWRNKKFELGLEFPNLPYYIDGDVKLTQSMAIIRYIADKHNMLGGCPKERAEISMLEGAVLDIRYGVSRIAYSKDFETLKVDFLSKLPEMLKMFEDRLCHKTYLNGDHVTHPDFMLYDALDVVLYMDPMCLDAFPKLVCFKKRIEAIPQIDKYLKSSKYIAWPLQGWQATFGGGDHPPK

stoichiometry N [1]: 2
Substance: Glutathione S-transferase (GST) alone (enzyme)

stoichiometry N [2]: 6
Substance: Glutathione S-transferase (GST)-tagged Kat1+G (Kluyveromyces lactis hAT-transposase 1) (enzyme)

stoichiometry N [3]: 6
Substance: non-tagged Kat1 (GST-tag cleaved from GST-Kat1 with thrombin) (enzyme)
